The text below walks through data of paper PMC10952841, “Biocatalytic synthesis of 2′‐deoxynucleotide 5′‐triphosphates from bacterial genomic DNA: Proof of principle” (Biotechnology and Bioengineering, 2023).

What all share (experiment): purified protein
Assay type in all cases: biochemical, Escherichia coli

Substrate in data set [1]: Nc1ccn([C@H]2C[C@H](O)[C@@H](COP(=O)(O)O)O2)c(=O)n1
The conditions noted are these: 2 mM ATP, 10 mM Mg acetate, 50 mM K acetate, 20 mM Tris-acetate, 37°C, three protein batches (N = 3).

Substrate in data set [2]: Nc1nc2c(ncn2[C@H]2C[C@H](O)[C@@H](CO[P@](=O)(O)OP(=O)(O)O)O2)c(=O)[nH]1
The conditions noted are these: 2 mM ATP, 10 mM Mg acetate, 50 mM K acetate, 20 mM Tris-acetate, 37°C.

Substrate in data set [3]: Cc1cn([C@H]2C[C@H](O)[C@@H](COP(=O)(O)OP(=O)(O)O)O2)c(=O)[nH]c1=O
The conditions noted are these: 2 mM ATP, 10 mM Mg acetate, 50 mM K acetate, 20 mM Tris-acetate, 37°C.

Substrate in data set [4]: Nc1ncnc2c1ncn2[C@H]1C[C@H](O)[C@@H](COP(=O)(O)OP(=O)(O)O)O1
To be noted: 2 mM ATP, 10 mM Mg acetate, 50 mM K acetate, 20 mM Tris-acetate, 37°C.

Substrate in data set [5]: Nc1ccn([C@H]2C[C@H](O)[C@@H](COP(=O)(O)OP(=O)(O)O)O2)c(=O)n1
The conditions noted are these: 2 mM ATP, 10 mM Mg acetate, 50 mM K acetate, 20 mM Tris-acetate, 37°C.

Substrate in data set [6]: Nc1nc2c(ncn2[C@H]2C[C@H](O)[C@@H](COP(=O)(O)O)O2)c(=O)[nH]1
To be noted: 2 mM ATP, 10 mM Mg acetate, 50 mM K acetate, 20 mM Tris-acetate, 37°C, three protein batches (N = 3).

Substrate in data set [7]: Cc1cn([C@H]2C[C@H](O)[C@@H](COP(=O)(O)O)O2)c(=O)[nH]c1=O
To be noted: 2 mM ATP, 10 mM Mg acetate, 50 mM K acetate, 20 mM Tris-acetate, 37°C, three protein batches (N = 3).

B1: cytidylate kinase (cmk) (Escherichia coli K-12) (protein)
chain: MTAIAPVITIDGPSGAGKGTLCKAMAEALQWHLLDSGAIYRVLALAALHHHVDVASEDALVPLASHLDVRFVSTNGNLEVILEGEDVSGEIRTQEVANAASQVAAFPRVREALLRRQRAFRELPGLIADGRDMGTVVFPDAPVKIFLDASSEERAHRRMLQLQEKGFSVNFERLLAEIKERDDRDRNRAVAPLVPAADALVLDSTTLSIEQVIEKALQYARQKLALA
notes: C-terminal 6x His tag (pET24a), kept; E. coli BL21(DE3) host; Ni-NTA
In the case of B1, in the data set “purified protein [1]”, the Km stood at 314 ± 154 µM and the Vmax came out at 69.3 µmol/min/mg.

B2: nucleotide disphosphate kinase (ndk; NDK) (Escherichia coli K-12) (protein)
chain: AIERTFSIIKPNAVAKNVIGNIFARFEAAGFKIVGTKMLHLTVEQARGFYAEHDGKPFFDGLVEFMTSGPIVVSVLEGENAVQRHRDLLGATNPANALAGTLRADYADSLTENGTHGSDSVESAAREIAYFFGEGEVCPRTR
notes: as for B1
As for B2, the Km in “purified protein [2]” was 431 ± 89 µM; in “purified protein [3]”, 2398 ± 1036 µM; in “purified protein [4]”, 1185 ± 87 µM; in “purified protein [5]”, 543 ± 105 µM.

B3: guanylate kinase (gmk) (Escherichia coli K-12) (protein)
chain: MAQGTLYIVSAPSGAGKSSLIQALLKTQPLYDTQVSVSHTTRQPRPGEVHGEHYFFVNHDEFKEMISRDAFLEHAEVFGNYYGTSREAIEQVLATGVDVFLDIDWQGAQQIRQKMPHARSIFILPPSKIELDRRLRGRGQDSEEVIAKRMAQAVAEMSHYAEYDYLIVNDDFDTALTDLKTIIRAERLRMSRQKQRHDALISKLLAD
notes: as for B1
B3: in the data set “purified protein [6]”, the Km was found to be 848 ± 402 µM and the Vmax was 76.2 µmol/min/mg.

B4: thymidylate kinase (tmk) (Escherichia coli K-12) (protein)
chain: MRSKYIVIEGLEGAGKTTARNVVVETLEQLGIRDMVFTREPGGTQLAEKLRSLVLDIKSVGDEVITDKAEVLMFYAARVQLVETVIKPALANGTWVIGDRHDLSTQAYQGGGRGIDQHMLATLRDAVLGDFRPDLTLYLDVTPEVGLKRARARGELDRIEQESFDFFNRTRARYLELAAQDKSIHTIDATQPLEAVMDAIRTTVTHWVKELDA
notes: as for B1
Turning to B4, in “purified protein [7]”, the Michaelis-Menten constant (Km) came to 150 ± 22 µM and the maximal velocity (Vmax) was found to be 39.4 µmol/min/mg.
